The text below walks through data of patent US5792629A, “Isolated DNA encoding novel protease inhibitory polypeptide” (Mochida Pharmaceutical Co., Ltd., priority 1990, dated 1998).

In assay [1] the test system is trypsin. The conditions noted are these: literature report; cited from earlier work.
Assay [2] has as its target plasmin (Homo sapiens, UniProt P00747). To be noted: literature report; cited from earlier work.
Assay [3] deals with kallikrein. The conditions noted are these: literature report; cited from earlier work.
Assay [4] concerns the target FXa (Homo sapiens, UniProt P00742). As to the kind of experiment: Human FXa-inhibiting activity, substrate S-2222. Also noted: purchased American Diagnostica Inc. To be noted: purified products, FIG. 25 and FIG. 26. Format: biochemical. On the procedure: The purified sample obtained in Example 1-(5) was dissolved in 100 μl of distilled water. Concentration of this solution was determined based on its bovine trypsin-inhibiting activity using the aforementioned UTI as a standard. The solution was then diluted to various concentration levels with 0.1% BSA/150 mM NaCl/5 mM CaCl2 /50 mM Tris-HCl buffer (pH 8.3) for use in the activity measurement. The UTI was also diluted in the same manner. Using a synthetic compound S-2222 (Daiichi Pure Chemicals Co., Ltd.) as a substrate, human FXa-inhibiting activities of the diluted test samples and the positive control were measured in accordance with the method of Ohno et al. (Ohno,H. et al., Thromb. Res., vol.19, pp.579-588, 1980) as follows.
Human FXa (American Diagnostica Inc.) was dissolved in distilled water to a concentration of 10 PEU/ml and the solution was further diluted with 0.1% BSA/150 mM NaCl/5 mM CaCl2 /50 mM Tris-HCl buffer (pH 8.3) to prepare 0.1 PEU/ml of FXa solution. 4 mM solution of S-2222 was prepared by dissolving it in distilled water and the solution was further diluted with 0.1% BSA/150 mM NaCl/5 MM CaCl2 /50 mM Tris-HCl buffer (pH 8.3) to obtain 2 mM solution of S-2222.
Next, 25 μl of the test sample or positive control was mixed with 100 μl of 0.1% BSA/150 mM NaCl/5 mM CaCl2 /50 mM Tris-HCl buffer (pH 8.3) and 25 μl of the FXa solution. After incubation at 37° C. for 10 minutes, 100 μl of the S-2222 solution was added to the mixture to start the reaction. The reaction was carried out at 37° C. for 30 minutes and then stopped by adding 50 μl of 50% acetic acid solution to the reaction mixture. Thereafter, absorbance at 405 nm was measured using a spectrophotometer.
In this instance, in order to eliminate absorbance of various solutions in the reaction mixture, a blank solution was prepared by mixing 25 μl of the FXa solution with 50 μl of 50% acetic acid and then with 25 μl of each test sample or the positive control, 100 μl of 0.1% BSA/150 mM NaCl/5 mM CaCl2 /50 mM Tris-HCl buffer (pH 8.3) and with 100 μl of the S-2222 solution.
In this figure, human FXa remaining activity was expressed by percentage based on the absorbance of a control reaction mixture in which 25 μl of 0.1% BSA/150 mM NaCl/5 mM CaCl2 /50 mM Tris-HCl buffer (pH 8.3) was used instead of the test sample or the positive control.

The target of assay [5] is T1, Human trypsin (Homo sapiens, UniProt P07477).
T1 construct: purchased Calbiochem
Nature of the assay: Human trypsin-inhibiting activity, substrate S-2444. Format: biochemical. To be noted: purified products, concentration as U/ml bovine trypsin-inhibiting activity based on UTI. The protocol:
The purified sample obtained in Example 1-(5) was dissolved in 100 μl of distilled water. Concentration of this solution was determined based on its bovine trypsin-inhibiting activity using the aforementioned UTI as a standard. The solution was then diluted to various concentration levels with 0.1% BSA/0.2M triethanolamine-HCl buffer (pH 7.8) for the activity measurement. The aforementioned UTI was also diluted in the same manner.
Using the aforementioned synthetic compound S-2444 as a substrate, human trypsin-inhibiting activities of the diluted test samples and the positive control were measured in accordance with the method of Kassell (Kassell B., Methods in Enzymol., vol 19, pp.84-852, 1970) as follows.
Human trypsin (Calbiochem) was dissolved in 0.001M HCl to a concentration of 1,000 SU/ml and the solution was further diluted with 0.1% BSA/0.2M triethanolamine-HCl buffer (pH 7.8) to prepare 1.25 SU/ml of trypsin solution. 2 mM solution of S-2444 was prepared by dissolving it in distilled water.
Next, 100 μl of the test sample or positive control was mixed with 100 μl of the trypsin solution. After incubation at 37° C. for 10 minutes, 50 μl of the S-2444 solution was added to the mixture to start the reaction. The reaction was carried out at 37° C. for 20 minutes and then stopped by adding 50 μl of 50% acetic acid solution to the reaction mixture. Thereafter, absorbance at 405 nm was measured using a spectrophotometer.
In this instance, in order to eliminate absorbance of various solutions in the reaction mixture, a blank solution was prepared by mixing 100 μl of the trypsin solution with 50 μl of 50% acetic acid and then with 100 μl of each test sample or the positive control and with 50 μl of the S-2444 solution.
In this figure, human trypsin remaining activity was expressed by percentage based on the absorbance of a control reaction mixture in which 100 μl of 0.1% BSA/0.2M triethanolamine-HCl buffer (pH 7.8) was used instead of the test sample or the positive control.

Sequence of FXa (P00742 235-488 limits assumed): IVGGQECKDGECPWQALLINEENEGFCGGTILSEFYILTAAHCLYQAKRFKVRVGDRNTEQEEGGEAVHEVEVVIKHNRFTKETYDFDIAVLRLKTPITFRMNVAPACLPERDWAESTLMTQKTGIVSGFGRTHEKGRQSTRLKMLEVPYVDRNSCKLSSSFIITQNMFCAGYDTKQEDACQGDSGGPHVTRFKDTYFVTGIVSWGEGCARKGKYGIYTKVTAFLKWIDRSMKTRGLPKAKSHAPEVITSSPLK
Sequence of FXa (P00742 41-179 partner limits assumed): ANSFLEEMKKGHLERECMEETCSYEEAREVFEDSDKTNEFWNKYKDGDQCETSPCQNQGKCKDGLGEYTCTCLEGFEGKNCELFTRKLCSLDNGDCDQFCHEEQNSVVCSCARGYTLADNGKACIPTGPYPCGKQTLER
Sequence of plasmin (P00747 581-810 limits assumed, species assumed): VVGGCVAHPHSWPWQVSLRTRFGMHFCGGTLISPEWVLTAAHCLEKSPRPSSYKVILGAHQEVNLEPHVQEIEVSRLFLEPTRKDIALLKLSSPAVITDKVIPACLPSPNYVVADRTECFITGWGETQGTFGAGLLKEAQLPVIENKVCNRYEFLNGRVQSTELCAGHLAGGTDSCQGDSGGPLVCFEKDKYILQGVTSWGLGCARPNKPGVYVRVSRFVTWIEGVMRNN
Sequence of plasmin (P00747 97-580 partner limits assumed, species assumed): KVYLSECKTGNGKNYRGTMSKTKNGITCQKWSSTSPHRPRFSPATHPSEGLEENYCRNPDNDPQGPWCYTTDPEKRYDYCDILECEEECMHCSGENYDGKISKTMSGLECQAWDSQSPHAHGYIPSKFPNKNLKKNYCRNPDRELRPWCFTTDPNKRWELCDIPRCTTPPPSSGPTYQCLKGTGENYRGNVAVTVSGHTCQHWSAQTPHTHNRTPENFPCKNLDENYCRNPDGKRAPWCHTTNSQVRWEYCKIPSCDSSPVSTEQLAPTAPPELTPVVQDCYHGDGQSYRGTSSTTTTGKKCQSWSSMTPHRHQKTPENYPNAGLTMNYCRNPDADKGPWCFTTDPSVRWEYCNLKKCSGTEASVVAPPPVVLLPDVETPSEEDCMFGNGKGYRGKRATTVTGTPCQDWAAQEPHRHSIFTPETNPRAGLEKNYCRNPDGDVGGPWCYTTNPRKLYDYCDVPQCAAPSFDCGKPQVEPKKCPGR

As for aprotinin [reference compound], the inhibition of trypsin entry in assay [1] is “inhibits”. Besides, the inhibition of plasmin result in assay [2] is listed as “inhibits”. In assay [3], the inhibition of kallikrein entry is “inhibits”.

B1: Y46E: polypeptide defined by the amino acid sequence of formula 5, purified from culture supernatant of E. coli JE5505 (pM575B) (protein)
chain: TVAACNLPIVRGPCRAFIQLWAFDAVKGKCVLFPYGGCQGNGNKFESEKECREYCGVPGDGDEELLRFSN
For the molecule B1, the “human FXa-inhibiting activity relative to polypeptide TN70” value in assay [4] is given as “about 7 times”. Also, in assay [5], the “human trypsin-inhibiting activity compared with polypeptides TN70 and TL66” value is “almost the same”.

B2: Q19K: polypeptide defined by the amino acid sequence of formula 6, purified from culture supernatant of E. coli JE5505 (pM576) (protein)
chain: DDAACNLPIVRGPCRAFIKLWAFDAVKGKCVLFPYGGCQGNGNKFYSEKECREYCGVPGDGDEELLRFSN
In the case of B2, in assay [4], the “human FXa-inhibiting activity relative to polypeptide TN70” value is given as “about 5 times”. For the same molecule, the “human trypsin-inhibiting activity compared with polypeptides TN70 and TL66” value in assay [5] was “almost the same”.
